The chains are these.
B1: POU domain, class 3, transcription factor 2, residues 262 to 338; numbered along this chain, P20265 (parent)
chain: EDTPTSDDLEQFAKQFKQRRIKLGFTQADVGLALGTLYGNVFSQTTICRFEALQLSFKNMCKLKPLLNKWLEEADSS

± gives the uncertainty stated by the source.

Variants of B1 are the subject of this data set. Kind of data set: abundance fitness (aPCA) (normalised: wild type 0, dead -1); higher = more abundant; growth selection in yeast, the domain comes from the species named. To be noted: Homo sapiens.
On to EDTPTSDDLEQFAKQFKQRRIKLGFTQADVGLALGTLYGNVFSQTTICRFEALQLSFKVMCKLKPLLNKWLEEADSS [N59V], for which the abundance fitness is 0.041 ± 0.033. In the case of EDTPTSDDLEQFAKQFKQRRIKLGFTQADVGLALGTLYGNVFSQTTICRFEALQLSYKNMCKLKPLLNKWLEEADSS [F57Y], the abundance fitness stood at 0.056 ± 0.11. As to EDTPTSDDLEQFAKQFKQRRIKLGFTQADVGLALGTLYGNVFSQTTICRFEALQLSWKNMCKLKPLLNKWLEEADSS [F57W], the abundance fitness is -0.169 ± 0.031. As to EDTPTSDDLEQFAKQFKQRRIKLGFTQADVGLALGTLYGNVFSQTTICRFEALQLSFGNMCKLKPLLNKWLEEADSS [K58G], the abundance fitness is -0.033 ± 0.029.

Take EDTPTSDDLEQFAKQFKQRRIKLGFTQADVGLALGTLYGNVFSQTTICRFEALQLSFFNMCKLKPLLNKWLEEADSS [K58F]: the abundance fitness was -0.163 ± 0.15. Turning to EDTPTSDDLEQFAKQFKQRRIKLGFTQADVGLALGTLYGNVFSQTTICRFEALQLSFHNMCKLKPLLNKWLEEADSS [K58H], the abundance fitness was -0.486 ± 0.26. Regarding EDTPTSDDLEQFAKQFKQRRIKLGFTQADVGLALGTLYGNVFSQTTICRFEALQLSFQNMCKLKPLLNKWLEEADSS [K58Q], the abundance fitness came to 0.024 ± 0.042. EDTPTSDDLEQFAKQFKQRRIKLGFTQADVGLALGTLYGNVFSQTTICRFEALQLSFVNMCKLKPLLNKWLEEADSS [K58V]: the abundance fitness is -0.113 ± 0.039. With EDTPTSDDLEQFAKQFKQRRIKLGFTQADVGLALGTLYGNVFSQTTICRFEALQLSFANMCKLKPLLNKWLEEADSS [K58A], the abundance fitness was -0.042 ± 0.036. As for EDTPTSDDLEQFAKQFKQRRIKLGFTQADVGLALGTLYGNVFSQTTICRFEALQLSFWNMCKLKPLLNKWLEEADSS [K58W], the abundance fitness was -0.235 ± 0.044.

Regarding EDTPTSDDLEQFAKQFKQRRIKLGFTQADVGLALGTLYGNVFSQTTICRFEALQLSFENMCKLKPLLNKWLEEADSS [K58E], the abundance fitness came out at 0.069 ± 0.039. On to EDTPTSDDLEQFAKQFKQRRIKLGFTQADVGLALGTLYGNVFSQTTICRFEALQLSFDNMCKLKPLLNKWLEEADSS [K58D], for which the abundance fitness is -0.088 ± 0.091. Then EDTPTSDDLEQFAKQFKQRRIKLGFTQADVGLALGTLYGNVFSQTTICRFEALQLSFSNMCKLKPLLNKWLEEADSS [K58S], with -0.053 ± 0.051. For the variant EDTPTSDDLEQFAKQFKQRRIKLGFTQADVGLALGTLYGNVFSQTTICRFEALQLSFLNMCKLKPLLNKWLEEADSS [K58L], the abundance fitness was -0.163 ± 0.042. Turning to EDTPTSDDLEQFAKQFKQRRIKLGFTQADVGLALGTLYGNVFSQTTICRFEALQLSFMNMCKLKPLLNKWLEEADSS [K58M], the abundance fitness is -0.12 ± 0.055.

EDTPTSDDLEQFAKQFKQRRIKLGFTQADVGLALGTLYGNVFSQTTICRFEALQLSFRNMCKLKPLLNKWLEEADSS [K58R]: the abundance fitness was -0.058 ± 0.031.

As to EDTPTSDDLEQFAKQFKQRRIKLGFTQADVGLALGTLYGNVFSQTTICRFEALQLSFCNMCKLKPLLNKWLEEADSS [K58C], the abundance fitness is -0.321 ± 0.096. EDTPTSDDLEQFAKQFKQRRIKLGFTQADVGLALGTLYGNVFSQTTICRFEALQLSFNNMCKLKPLLNKWLEEADSS [K58N]: the abundance fitness worked out at 0.039 ± 0.18. For EDTPTSDDLEQFAKQFKQRRIKLGFTQADVGLALGTLYGNVFSQTTICRFEALQLSFKNNCKLKPLLNKWLEEADSS [M60N] the value was -0.561 ± 0.33; for EDTPTSDDLEQFAKQFKQRRIKLGFTQADVGLALGTLYGNVFSQTTICRFEALQLSFKNRCKLKPLLNKWLEEADSS [M60R], -0.706 ± 0.047.

Consider EDTPTSDDLEQFAKQFKQRRIKLGFTQADVGLALGTLYGNVFSQTTICRFEALQLSFKNDCKLKPLLNKWLEEADSS [M60D], for which the abundance fitness is -0.961 ± 0.2.

EDTPTSDDLEQFAKQFKQRRIKLGFTQADVGLALGTLYGNVFSQTTICRFEALQLSFKNYCKLKPLLNKWLEEADSS [M60Y]: the abundance fitness is -0.624 ± 0.15. Take EDTPTSDDLEQFAKQFKQRRIKLGFTQADVGLALGTLYGNVFSQTTICRFEALQLSFKNECKLKPLLNKWLEEADSS [M60E]: the abundance fitness was -0.848 ± 0.079.

For the variant EDTPTSDDLEQFAKQFKQRRIKLGFTQADVGLALGTLYGNVFSQTTICRFEALQLSFKNQCKLKPLLNKWLEEADSS [M60Q], the abundance fitness is -0.546 ± 0.095. For EDTPTSDDLEQFAKQFKQRRIKLGFTQADVGLALGTLYGNVFSQTTICRFEALQLSFKNCCKLKPLLNKWLEEADSS [M60C] the value was -0.386 ± 0.074; for EDTPTSDDLEQFAKQFKQRRIKLGFTQADVGLALGTLYGNVFSQTTICRFEALQLSFKNFCKLKPLLNKWLEEADSS [M60F], -0.373 ± 0.13. Take EDTPTSDDLEQFAKQFKQRRIKLGFTQADVGLALGTLYGNVFSQTTICRFEALQLSFKNLCKLKPLLNKWLEEADSS [M60L]: the abundance fitness was -0.282 ± 0.039. Then EDTPTSDDLEQFAKQFKQRRIKLGFTQADVGLALGTLYGNVFSQTTICRFEALQLSFKNKCKLKPLLNKWLEEADSS [M60K], with -0.97 ± 0.18; and EDTPTSDDLEQFAKQFKQRRIKLGFTQADVGLALGTLYGNVFSQTTICRFEALQLSFKNACKLKPLLNKWLEEADSS [M60A], with -0.168 ± 0.035; and EDTPTSDDLEQFAKQFKQRRIKLGFTQADVGLALGTLYGNVFSQTTICRFEALQLSFKNSCKLKPLLNKWLEEADSS [M60S], with -0.377 ± 0.055.

Turning to EDTPTSDDLEQFAKQFKQRRIKLGFTQADVGLALGTLYGNVFSQTTICRFEALQLSFKNVCKLKPLLNKWLEEADSS [M60V], the abundance fitness is -0.553 ± 0.043.

Turning to EDTPTSDDLEQFAKQFKQRRIKLGFTQADVGLALGTLYGNVFSQTTICRFEALQLSFKNTCKLKPLLNKWLEEADSS [M60T], the abundance fitness is -0.337 ± 0.054. As for EDTPTSDDLEQFAKQFKQRRIKLGFTQADVGLALGTLYGNVFSQTTICRFEALQLSFKNWCKLKPLLNKWLEEADSS [M60W], the abundance fitness is -0.625 ± 0.071.

Regarding EDTPTSDDLEQFAKQFKQRRIKLGFTQADVGLALGTLYGNVFSQTTICRFEALQLSFKNICKLKPLLNKWLEEADSS [M60I], the abundance fitness is -0.907 ± 0.29. As for EDTPTSDDLEQFAKQFKQRRIKLGFTQADVGLALGTLYGNVFSQTTICRFEALQLSFKNHCKLKPLLNKWLEEADSS [M60H], the abundance fitness is -0.367 ± 0.17. For EDTPTSDDLEQFAKQFKQRRIKLGFTQADVGLALGTLYGNVFSQTTICRFEALQLSFKNGCKLKPLLNKWLEEADSS [M60G] the value was -0.543 ± 0.035.

The values are drawn from the Human Domainome abundance scans (Beltran et al. 2025).
